{"source": "patent US20210032299A1", "about": "(Eli Lilly, published 2021)", "binders": {"B1": {"name": "Example 59 (peptide)", "peptide": "Y[Aib]EGTFISDYSI[αMeL]LDKK([AEEA-AEEA-γGlu-C20 diacid])HQ[Aib]EFVE[4Pal]LLAAGPSSGAPPPS-NH2", "modifications": "N-terminus assumed", "SMILES": "CC[C@H](C)[C@H](NC(=O)[C@H](Cc1ccccc1)NC(=O)[C@@H](NC(=O)CNC(=O)[C@H](CCC(=O)O)NC(=O)C(C)(C)NC(=O)[C@@H](N)Cc1ccc(O)cc1)[C@@H](C)O)C(=O)N[C@@H](CO)C(=O)N[C@@H](CC(=O)O)C(=O)N[C@@H](Cc1ccc(O)cc1)C(=O)N[C@@H](CO)C(=O)N[C@H](C(=O)N[C@@](C)(CC(C)C)C(=O)N[C@@H](CC(C)C)C(=O)N[C@@H](CC(=O)O)C(=O)N[C@@H](CCCCN)C(=O)N[C@@H](CCCCNC(=O)COCCOCCNC(=O)COCCOCCNC(=O)CC[C@H](NC(=O)CCCCCCCCCCCCCCCCCCC(=O)O)C(=O)O)C(=O)N[C@@H](Cc1c[nH]cn1)C(=O)N[C@@H](CCC(N)=O)C(=O)NC(C)(C)C(=O)N[C@@H](CCC(=O)O)C(=O)N[C@@H](Cc1ccccc1)C(=O)N[C@H](C(=O)N[C@@H](CCC(=O)O)C(=O)N[C@@H](Cc1ccncc1)C(=O)N[C@@H](CC(C)C)C(=O)N[C@@H](CC(C)C)C(=O)N[C@@H](C)C(=O)N[C@@H](C)C(=O)NCC(=O)N1CCC[C@H]1C(=O)N[C@@H](CO)C(=O)N[C@@H](CO)C(=O)NCC(=O)N[C@@H](C)C(=O)N1CCC[C@H]1C(=O)N1CCC[C@H]1C(=O)N1CCC[C@H]1C(=O)N[C@@H](CO)C(N)=O)C(C)C)[C@@H](C)CC"}, "B2": {"name": "Example 56 (peptide)", "peptide": "Y[Aib]EGTFISDYSI[αMeL]LDKK([AEEA-AEEA-γGlu-C20 diacid])HQ[Aib]D[αMeF]VE[4Pal]LLAGGPSSGAPPPS-NH2", "modifications": "N-terminus assumed", "SMILES": "CC[C@H](C)[C@H](NC(=O)[C@H](Cc1ccccc1)NC(=O)[C@@H](NC(=O)CNC(=O)[C@H](CCC(=O)O)NC(=O)C(C)(C)NC(=O)[C@@H](N)Cc1ccc(O)cc1)[C@@H](C)O)C(=O)N[C@@H](CO)C(=O)N[C@@H](CC(=O)O)C(=O)N[C@@H](Cc1ccc(O)cc1)C(=O)N[C@@H](CO)C(=O)N[C@H](C(=O)N[C@@](C)(CC(C)C)C(=O)N[C@@H](CC(C)C)C(=O)N[C@@H](CC(=O)O)C(=O)N[C@@H](CCCCN)C(=O)N[C@@H](CCCCNC(=O)COCCOCCNC(=O)COCCOCCNC(=O)CC[C@H](NC(=O)CCCCCCCCCCCCCCCCCCC(=O)O)C(=O)O)C(=O)N[C@@H](Cc1c[nH]cn1)C(=O)N[C@@H](CCC(N)=O)C(=O)NC(C)(C)C(=O)N[C@@H](CC(=O)O)C(=O)N[C@@](C)(Cc1ccccc1)C(=O)N[C@H](C(=O)N[C@@H](CCC(=O)O)C(=O)N[C@@H](Cc1ccncc1)C(=O)N[C@@H](CC(C)C)C(=O)N[C@@H](CC(C)C)C(=O)N[C@@H](C)C(=O)NCC(=O)NCC(=O)N1CCC[C@H]1C(=O)N[C@@H](CO)C(=O)N[C@@H](CO)C(=O)NCC(=O)N[C@@H](C)C(=O)N1CCC[C@H]1C(=O)N1CCC[C@H]1C(=O)N1CCC[C@H]1C(=O)N[C@@H](CO)C(N)=O)C(C)C)[C@@H](C)CC"}, "B3": {"name": "Example 58 (peptide)", "peptide": "Y[Aib]EGTFISDYSI[αMeL]LDKK([AEEA-AEEA-γGlu-C20 diacid])HQ[Aib]EFVE[4Pal]LLATGPSSGAPPPS-NH2", "modifications": "N-terminus assumed", "SMILES": "CC[C@H](C)[C@H](NC(=O)[C@H](Cc1ccccc1)NC(=O)[C@@H](NC(=O)CNC(=O)[C@H](CCC(=O)O)NC(=O)C(C)(C)NC(=O)[C@@H](N)Cc1ccc(O)cc1)[C@@H](C)O)C(=O)N[C@@H](CO)C(=O)N[C@@H](CC(=O)O)C(=O)N[C@@H](Cc1ccc(O)cc1)C(=O)N[C@@H](CO)C(=O)N[C@H](C(=O)N[C@@](C)(CC(C)C)C(=O)N[C@@H](CC(C)C)C(=O)N[C@@H](CC(=O)O)C(=O)N[C@@H](CCCCN)C(=O)N[C@@H](CCCCNC(=O)COCCOCCNC(=O)COCCOCCNC(=O)CC[C@H](NC(=O)CCCCCCCCCCCCCCCCCCC(=O)O)C(=O)O)C(=O)N[C@@H](Cc1c[nH]cn1)C(=O)N[C@@H](CCC(N)=O)C(=O)NC(C)(C)C(=O)N[C@@H](CCC(=O)O)C(=O)N[C@@H](Cc1ccccc1)C(=O)N[C@H](C(=O)N[C@@H](CCC(=O)O)C(=O)N[C@@H](Cc1ccncc1)C(=O)N[C@@H](CC(C)C)C(=O)N[C@@H](CC(C)C)C(=O)N[C@@H](C)C(=O)N[C@H](C(=O)NCC(=O)N1CCC[C@H]1C(=O)N[C@@H](CO)C(=O)N[C@@H](CO)C(=O)NCC(=O)N[C@@H](C)C(=O)N1CCC[C@H]1C(=O)N1CCC[C@H]1C(=O)N1CCC[C@H]1C(=O)N[C@@H](CO)C(N)=O)[C@@H](C)O)C(C)C)[C@@H](C)CC"}, "B4": {"name": "Example 61 (peptide)", "peptide": "Y[Aib]EGT[αMeF]ISDYSI[αMeL]LDKK([AEEA-AEEA-γGlu-C20 diacid])HQ[Aib]EFVE[4Pal]LLATGPSSGAPPPS-NH2", "modifications": "N-terminus assumed", "SMILES": "CC[C@H](C)[C@H](NC(=O)[C@H](CO)NC(=O)[C@H](Cc1ccc(O)cc1)NC(=O)[C@H](CC(=O)O)NC(=O)[C@H](CO)NC(=O)[C@@H](NC(=O)[C@](C)(Cc1ccccc1)NC(=O)[C@@H](NC(=O)CNC(=O)[C@H](CCC(=O)O)NC(=O)C(C)(C)NC(=O)[C@@H](N)Cc1ccc(O)cc1)[C@@H](C)O)[C@@H](C)CC)C(=O)N[C@@](C)(CC(C)C)C(=O)N[C@@H](CC(C)C)C(=O)N[C@@H](CC(=O)O)C(=O)N[C@@H](CCCCN)C(=O)N[C@@H](CCCCNC(=O)COCCOCCNC(=O)COCCOCCNC(=O)CC[C@H](NC(=O)CCCCCCCCCCCCCCCCCCC(=O)O)C(=O)O)C(=O)N[C@@H](Cc1c[nH]cn1)C(=O)N[C@@H](CCC(N)=O)C(=O)NC(C)(C)C(=O)N[C@@H](CCC(=O)O)C(=O)N[C@@H](Cc1ccccc1)C(=O)N[C@H](C(=O)N[C@@H](CCC(=O)O)C(=O)N[C@@H](Cc1ccncc1)C(=O)N[C@@H](CC(C)C)C(=O)N[C@@H](CC(C)C)C(=O)N[C@@H](C)C(=O)N[C@H](C(=O)NCC(=O)N1CCC[C@H]1C(=O)N[C@@H](CO)C(=O)N[C@@H](CO)C(=O)NCC(=O)N[C@@H](C)C(=O)N1CCC[C@H]1C(=O)N1CCC[C@H]1C(=O)N1CCC[C@H]1C(=O)N[C@@H](CO)C(N)=O)[C@@H](C)O)C(C)C"}, "B5": {"name": "Example 57 (peptide)", "peptide": "Y[Aib]EGTFISDYSI[αMeL]LDKK([AEEA-AEEA-γGlu-C20 diacid])HQ[Aib]EFVE[4Pal]LLAQGPSSGAPPPS-NH2", "modifications": "N-terminus assumed", "SMILES": "CC[C@H](C)[C@H](NC(=O)[C@H](Cc1ccccc1)NC(=O)[C@@H](NC(=O)CNC(=O)[C@H](CCC(=O)O)NC(=O)C(C)(C)NC(=O)[C@@H](N)Cc1ccc(O)cc1)[C@@H](C)O)C(=O)N[C@@H](CO)C(=O)N[C@@H](CC(=O)O)C(=O)N[C@@H](Cc1ccc(O)cc1)C(=O)N[C@@H](CO)C(=O)N[C@H](C(=O)N[C@@](C)(CC(C)C)C(=O)N[C@@H](CC(C)C)C(=O)N[C@@H](CC(=O)O)C(=O)N[C@@H](CCCCN)C(=O)N[C@@H](CCCCNC(=O)COCCOCCNC(=O)COCCOCCNC(=O)CC[C@H](NC(=O)CCCCCCCCCCCCCCCCCCC(=O)O)C(=O)O)C(=O)N[C@@H](Cc1c[nH]cn1)C(=O)N[C@@H](CCC(N)=O)C(=O)NC(C)(C)C(=O)N[C@@H](CCC(=O)O)C(=O)N[C@@H](Cc1ccccc1)C(=O)N[C@H](C(=O)N[C@@H](CCC(=O)O)C(=O)N[C@@H](Cc1ccncc1)C(=O)N[C@@H](CC(C)C)C(=O)N[C@@H](CC(C)C)C(=O)N[C@@H](C)C(=O)N[C@@H](CCC(N)=O)C(=O)NCC(=O)N1CCC[C@H]1C(=O)N[C@@H](CO)C(=O)N[C@@H](CO)C(=O)NCC(=O)N[C@@H](C)C(=O)N1CCC[C@H]1C(=O)N1CCC[C@H]1C(=O)N1CCC[C@H]1C(=O)N[C@@H](CO)C(N)=O)C(C)C)[C@@H](C)CC"}, "B6": {"name": "Example 60 (peptide)", "peptide": "Y[Aib]EGT[αMeF]ISDYSI[αMeL]LDKK([AEEA-AEEA-γGlu-C20 diacid])HQ[Aib]EFVE[4Pal]LLAQGPSSGAPPPS-NH2", "modifications": "N-terminus assumed", "SMILES": "CC[C@H](C)[C@H](NC(=O)[C@H](CO)NC(=O)[C@H](Cc1ccc(O)cc1)NC(=O)[C@H](CC(=O)O)NC(=O)[C@H](CO)NC(=O)[C@@H](NC(=O)[C@](C)(Cc1ccccc1)NC(=O)[C@@H](NC(=O)CNC(=O)[C@H](CCC(=O)O)NC(=O)C(C)(C)NC(=O)[C@@H](N)Cc1ccc(O)cc1)[C@@H](C)O)[C@@H](C)CC)C(=O)N[C@@](C)(CC(C)C)C(=O)N[C@@H](CC(C)C)C(=O)N[C@@H](CC(=O)O)C(=O)N[C@@H](CCCCN)C(=O)N[C@@H](CCCCNC(=O)COCCOCCNC(=O)COCCOCCNC(=O)CC[C@H](NC(=O)CCCCCCCCCCCCCCCCCCC(=O)O)C(=O)O)C(=O)N[C@@H](Cc1c[nH]cn1)C(=O)N[C@@H](CCC(N)=O)C(=O)NC(C)(C)C(=O)N[C@@H](CCC(=O)O)C(=O)N[C@@H](Cc1ccccc1)C(=O)N[C@H](C(=O)N[C@@H](CCC(=O)O)C(=O)N[C@@H](Cc1ccncc1)C(=O)N[C@@H](CC(C)C)C(=O)N[C@@H](CC(C)C)C(=O)N[C@@H](C)C(=O)N[C@@H](CCC(N)=O)C(=O)NCC(=O)N1CCC[C@H]1C(=O)N[C@@H](CO)C(=O)N[C@@H](CO)C(=O)NCC(=O)N[C@@H](C)C(=O)N1CCC[C@H]1C(=O)N1CCC[C@H]1C(=O)N1CCC[C@H]1C(=O)N[C@@H](CO)C(N)=O)C(C)C"}}, "note": "Starred links: 1 amine or outer side, 2 acyl side, 3 side chain; linkers in the order of their positions; H or OH if unused. Non-standard residues stand in square brackets, D forms with d. Groups on a side chain read outwards from the residue. No end group written: not given here. *: point of attachment. C20 diacid = O=C(O)CCCCCCCCCCCCCCCCCCC(=O)*; γGlu = O=C(O)[C@H](CCC(=O)[*:2])N[*:1]; αMeF = C[C@](N)(Cc1ccccc1)C(=O)O; 4Pal = N[C@@H](Cc1ccncc1)C(=O)O; αMeL = CC(C)C[C@](C)(N)C(=O)O; AEEA = NCCOCCOCC(=O)O; Aib = CC(C)(N)C(=O)O"}
{"biological_target": "human glucagon receptor (human, UniProt P47871 26-477)", "sequence (P47871 26-477)": "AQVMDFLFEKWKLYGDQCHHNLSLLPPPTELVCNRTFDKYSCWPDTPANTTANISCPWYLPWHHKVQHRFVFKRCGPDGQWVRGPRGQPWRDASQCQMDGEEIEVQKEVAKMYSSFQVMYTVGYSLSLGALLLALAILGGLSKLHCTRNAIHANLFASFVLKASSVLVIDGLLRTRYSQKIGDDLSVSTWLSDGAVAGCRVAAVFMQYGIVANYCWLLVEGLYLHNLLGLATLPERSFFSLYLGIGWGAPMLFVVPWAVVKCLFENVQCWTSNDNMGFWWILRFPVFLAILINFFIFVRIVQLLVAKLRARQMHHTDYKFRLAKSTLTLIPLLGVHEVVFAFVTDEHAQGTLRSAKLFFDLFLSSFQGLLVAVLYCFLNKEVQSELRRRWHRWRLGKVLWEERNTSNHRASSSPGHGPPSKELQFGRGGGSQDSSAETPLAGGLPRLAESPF", "experiment": "cell-based or functional assay", "units": {"hGcgR cAMP Rel EC50": "nM"}}
{"binder": "B1", "hGcgR cAMP Rel EC50": "> 5000"}
{"binder": "B2", "hGcgR cAMP Rel EC50": "> 5000"}
{"binder": "B3", "hGcgR cAMP Rel EC50": "> 5000"}
{"binder": "B4", "hGcgR cAMP Rel EC50": "> 5000"}
{"binder": "B5", "hGcgR cAMP Rel EC50": 886}
{"binder": "B6", "hGcgR cAMP Rel EC50": "> 5000"}
{"biological_target": "T1, human glucose-dependent insulinotropic peptide receptor (human, UniProt P48546 22-466)", "T1 sequence (looked up)": "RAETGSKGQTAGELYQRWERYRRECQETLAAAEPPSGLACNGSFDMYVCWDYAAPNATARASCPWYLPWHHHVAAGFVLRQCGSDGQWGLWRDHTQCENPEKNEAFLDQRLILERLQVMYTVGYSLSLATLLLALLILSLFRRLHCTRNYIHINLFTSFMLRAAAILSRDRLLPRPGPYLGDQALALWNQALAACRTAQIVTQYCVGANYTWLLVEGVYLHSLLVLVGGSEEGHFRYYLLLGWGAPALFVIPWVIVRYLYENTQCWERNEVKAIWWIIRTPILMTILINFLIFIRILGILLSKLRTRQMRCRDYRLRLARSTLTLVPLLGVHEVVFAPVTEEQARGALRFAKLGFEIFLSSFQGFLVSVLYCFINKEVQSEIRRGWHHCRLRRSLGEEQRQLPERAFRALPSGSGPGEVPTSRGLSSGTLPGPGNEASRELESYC", "experiment": "cell-based or functional assay", "units": {"hGIPR cAMP Rel EC50": "nM"}}
{"binder": "B1", "hGIPR cAMP Rel EC50": 0.0202}
{"binder": "B2", "hGIPR cAMP Rel EC50": 0.0169}
{"binder": "B3", "hGIPR cAMP Rel EC50": 0.0183}
{"binder": "B4", "hGIPR cAMP Rel EC50": 0.0167}
{"binder": "B5", "hGIPR cAMP Rel EC50": 0.0177}
{"binder": "B6", "hGIPR cAMP Rel EC50": 0.0369}
{"biological_target": "human GLP-1 receptor (human, UniProt P43220 24-463)", "experiment": "cell-based or functional assay", "units": {"hGLP1R cAMP Rel EC50": "nM"}}
{"binder": "B1", "hGLP1R cAMP Rel EC50": "> 5000"}
{"binder": "B2", "hGLP1R cAMP Rel EC50": "> 5000"}
{"binder": "B3", "hGLP1R cAMP Rel EC50": "> 5000"}
{"binder": "B4", "hGLP1R cAMP Rel EC50": 192}
{"binder": "B5", "hGLP1R cAMP Rel EC50": "> 5000"}
{"binder": "B6", "hGLP1R cAMP Rel EC50": 71}
